In PMC8034652 (Nucleic Acids Research, 2021):

Target: the molecule itself
Experiment: native gel or EMSA

Protein	binding result
FOXO1 R225A mutant (domain or fragment) KSSSSRRNAWGNLSYADLITKAIESSAEKRLTLSQIYEWMVKSVPYFKDKGDSNSSAGWKNSIRHNLSLHSKFIAVQNEGTGKSSWWMLNPEGGKSGKSPRRRAASMDNNSKFAKS	binds
FOXO1 Q227A mutant (domain or fragment) KSSSSRRNAWGNLSYADLITKAIESSAEKRLTLSQIYEWMVKSVPYFKDKGDSNSSAGWKNSIRHNLSLHSKFIRVANEGTGKSSWWMLNPEGGKSGKSPRRRAASMDNNSKFAKS	binds
